Kd data for 6 molecules are collected here from paper PMC6631230, “Efficient Screening of Combinatorial Peptide Libraries by Spatially Ordered Beads Immobilized on Conventional Glass Slides” (High-Throughput, 2019).

Usually Kd stands for the concentration at which binding is half-saturated.

One assay deals with polyclonal mouse IgG (mouse). Nature of the assay: SPR; antibody immobilised by amine coupling on an HC200 chip (Reichert SR7500DC); peptides flowed in HBS-EP (pH 7.4, 0.01 M HEPES, 0.15 M NaCl, 3 mM EDTA, 0.005% Tween 20); multiple kinetics mode.
Conditions: not given
For GIHPFGR [IgG BP 2], the equilibrium dissociation constant (Kd) came out at 50 µM.

As for GRIHGPR [IgG BP 1], the Kd worked out at 14 µM.

GEPFSIP [IgG BP 3] registered a Kd of 20 µM.

As for SHSGIFR [IgG BP 4], the Kd amounted to 60 µM.

The target in another assay is mouse IgG.
Assay: not given
The following applies: literature IgG-binding peptide listed in Table 3; read-out: KD (equilibrium dissociation constant), literature value; cited from earlier work. The source says:
Table 3 Equilibrium dissociation constants (KD) for peptide mouse IgG interaction determined by SPR. | column: KD, µM
Turning to HWRGWV, the Kd is 10 µM.

In the case of HFRRHL, the Kd was 26 µM.
